# Reference: patent publication US20240209081A1 (GENOME, published 2024)
# T1: human CNTN4-10×His (human, UniProt Q8IWV2 19-1000)
# T1 construct: also called CNTN-4 protein
# T1 sequence: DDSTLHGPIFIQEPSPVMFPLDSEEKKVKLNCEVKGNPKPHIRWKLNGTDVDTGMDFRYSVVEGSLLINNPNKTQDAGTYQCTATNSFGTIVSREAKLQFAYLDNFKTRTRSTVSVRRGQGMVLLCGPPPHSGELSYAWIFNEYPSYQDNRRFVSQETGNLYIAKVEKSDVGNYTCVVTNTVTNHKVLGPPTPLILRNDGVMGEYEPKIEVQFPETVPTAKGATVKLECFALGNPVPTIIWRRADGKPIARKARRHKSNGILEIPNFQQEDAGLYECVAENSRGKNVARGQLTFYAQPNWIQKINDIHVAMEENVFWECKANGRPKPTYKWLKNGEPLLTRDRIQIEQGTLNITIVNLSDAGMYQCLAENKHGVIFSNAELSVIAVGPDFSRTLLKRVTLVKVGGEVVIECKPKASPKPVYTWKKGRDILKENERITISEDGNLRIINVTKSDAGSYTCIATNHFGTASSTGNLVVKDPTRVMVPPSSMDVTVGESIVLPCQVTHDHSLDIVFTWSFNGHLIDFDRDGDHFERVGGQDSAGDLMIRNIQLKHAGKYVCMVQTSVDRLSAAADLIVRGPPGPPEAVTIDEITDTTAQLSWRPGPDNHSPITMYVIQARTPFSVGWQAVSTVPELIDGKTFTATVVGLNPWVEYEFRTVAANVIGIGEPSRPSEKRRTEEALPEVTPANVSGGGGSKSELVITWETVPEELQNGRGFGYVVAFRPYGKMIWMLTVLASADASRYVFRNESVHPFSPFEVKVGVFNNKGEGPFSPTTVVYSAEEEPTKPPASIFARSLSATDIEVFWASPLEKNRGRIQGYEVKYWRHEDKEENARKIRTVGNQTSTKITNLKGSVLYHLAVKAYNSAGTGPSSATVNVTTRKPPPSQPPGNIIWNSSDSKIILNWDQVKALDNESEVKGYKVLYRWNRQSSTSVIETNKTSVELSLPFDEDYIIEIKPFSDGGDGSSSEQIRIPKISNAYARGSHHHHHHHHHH
# T2: human CNTN4 recombinant protein (human, UniProt Q8IWV2 19-1000)
# T2 construct: No tag is stated, so it is kept apart from human CNTN4-10×His, though it may be the same preparation; also called Human CNTN-4 protein
# T2 sequence (looked up): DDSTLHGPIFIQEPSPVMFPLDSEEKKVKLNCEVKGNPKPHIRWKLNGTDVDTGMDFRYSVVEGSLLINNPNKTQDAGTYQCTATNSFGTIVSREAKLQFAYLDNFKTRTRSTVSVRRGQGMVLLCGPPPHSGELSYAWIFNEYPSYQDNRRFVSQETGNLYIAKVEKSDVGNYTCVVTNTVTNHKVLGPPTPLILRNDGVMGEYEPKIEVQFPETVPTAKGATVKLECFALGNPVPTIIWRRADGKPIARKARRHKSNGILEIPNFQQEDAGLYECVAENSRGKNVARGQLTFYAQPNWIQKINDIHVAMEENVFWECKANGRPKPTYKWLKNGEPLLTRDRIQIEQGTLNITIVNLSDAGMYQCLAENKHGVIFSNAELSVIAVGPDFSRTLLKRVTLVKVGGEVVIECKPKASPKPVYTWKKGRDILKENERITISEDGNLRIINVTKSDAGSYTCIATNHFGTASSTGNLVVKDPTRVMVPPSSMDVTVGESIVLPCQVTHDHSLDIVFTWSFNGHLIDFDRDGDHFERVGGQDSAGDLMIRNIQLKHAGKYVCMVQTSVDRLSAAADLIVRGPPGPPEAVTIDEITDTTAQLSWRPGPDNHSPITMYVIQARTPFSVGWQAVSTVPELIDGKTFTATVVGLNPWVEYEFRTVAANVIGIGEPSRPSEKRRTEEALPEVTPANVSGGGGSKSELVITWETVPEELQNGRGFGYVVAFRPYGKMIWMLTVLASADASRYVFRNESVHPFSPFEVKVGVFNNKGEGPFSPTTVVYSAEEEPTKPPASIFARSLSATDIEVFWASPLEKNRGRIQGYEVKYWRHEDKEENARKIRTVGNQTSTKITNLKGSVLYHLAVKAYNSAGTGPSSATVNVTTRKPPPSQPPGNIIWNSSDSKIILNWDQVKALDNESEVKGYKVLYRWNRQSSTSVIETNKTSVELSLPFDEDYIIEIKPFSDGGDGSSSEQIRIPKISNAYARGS
# T3: mouse CNTN4-10×His (mouse, UniProt Q69Z26 19-1000)
# T3 sequence: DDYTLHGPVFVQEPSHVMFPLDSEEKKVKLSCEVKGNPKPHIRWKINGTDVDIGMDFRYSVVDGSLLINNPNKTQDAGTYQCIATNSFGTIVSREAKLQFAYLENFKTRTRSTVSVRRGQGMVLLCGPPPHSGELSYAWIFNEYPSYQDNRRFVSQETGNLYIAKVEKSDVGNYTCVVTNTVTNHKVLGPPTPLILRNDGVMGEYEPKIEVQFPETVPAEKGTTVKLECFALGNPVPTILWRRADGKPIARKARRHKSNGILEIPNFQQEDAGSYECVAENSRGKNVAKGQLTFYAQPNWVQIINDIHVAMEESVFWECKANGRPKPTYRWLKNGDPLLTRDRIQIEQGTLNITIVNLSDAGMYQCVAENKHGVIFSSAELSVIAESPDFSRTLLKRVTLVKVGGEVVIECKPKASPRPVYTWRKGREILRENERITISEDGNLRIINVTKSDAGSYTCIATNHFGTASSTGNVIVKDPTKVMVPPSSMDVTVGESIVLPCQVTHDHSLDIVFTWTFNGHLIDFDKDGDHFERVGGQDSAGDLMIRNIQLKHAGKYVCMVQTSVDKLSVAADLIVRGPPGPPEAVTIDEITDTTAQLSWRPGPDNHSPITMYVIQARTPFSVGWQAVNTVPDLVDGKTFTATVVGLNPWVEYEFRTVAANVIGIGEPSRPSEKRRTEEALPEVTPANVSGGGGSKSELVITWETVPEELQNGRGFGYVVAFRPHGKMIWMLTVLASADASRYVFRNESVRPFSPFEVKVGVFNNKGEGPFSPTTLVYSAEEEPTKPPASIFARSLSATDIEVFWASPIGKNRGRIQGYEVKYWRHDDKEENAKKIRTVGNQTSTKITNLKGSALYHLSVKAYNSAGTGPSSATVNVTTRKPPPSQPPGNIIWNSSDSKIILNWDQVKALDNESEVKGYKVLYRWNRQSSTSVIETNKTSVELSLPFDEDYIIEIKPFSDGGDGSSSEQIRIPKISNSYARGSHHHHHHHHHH
# B1: anti-CNTN4 IgG4-S228P monoclonal antibody hAb-1 (antibody, V domains shown)
# VH: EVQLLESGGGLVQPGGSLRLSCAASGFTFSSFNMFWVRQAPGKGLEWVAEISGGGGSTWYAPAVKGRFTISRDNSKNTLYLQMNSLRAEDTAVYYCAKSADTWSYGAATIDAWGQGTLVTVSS
# VL: ELTQDPAVSVALGQTVRITCSGSSGSYGWYQQKPGQAPVLVIYDNTNRPSGIPDRFSGSSSGNTASLTITGAQAEDEADYYCGGYDGSTDVFGGGTKLTVL
# Experiments:
# human CNTN4-10×His [1] = molecular target: T1, human CNTN4-10×His; test: ELISA on coated human CNTN4-10×His, competitor 500 nM CNTN4 receptor (APP) co-incubated
# Method: (§1) An ELISA plate was coated with 20 nM of antigens human CNTN4-10×His. For antibody binding, a mixture of antibodies hAb-1 diluted to a final concentration of 0 to 1,000 nM and human CNTN4 receptors (Amyloid precursor protein, APP) diluted to 0 or 500 nM was bound to the antigens. HRP conjugated anti-human kappa antibodies were used as a secondary antibody for antibody detection. Color was developed using ABTS, which is a color developing reagent, and the absorbance at 405 nm was measured.
# [2] = molecular target: T2, human CNTN4 recombinant protein; test: SPR (CM5 chip), hAb-1 captured by anti-human IgG Fc, human CNTN4 400 nM to 0.78 nM as analyte
# Method: SPR test was performed on the monoclonal antibody hAb-1 prepared in Example 2. More specifically, in order to bind anti-human IgG Fc (capture antibody) using amine coupling, CM5 chip was mounted, running buffer was allowed to flow, the chip was activated, and then capture antibody was attached thereto. […] to which capture antibody was not attached was deactivated using ethanolamine, and then regeneration was performed using 3M magnesium chloride to clear analytes except capture antibody. The hAb-1 prepared at a concentration of 0.05 μg/mL was allowed to flow for 30 seconds at a rate of 10 μL/min for binding. Thereafter, human CNTN4 (400 nM to 0.78 nM) prepared by sequential dilution as an antigen was allowed to flow at a rate of 30 μL/min for 3 minutes to be bound, and dissociation was performed for 5 minutes.
# Then, in order to clear all analytes attached to the capture antibody, a regeneration solution (3M magnesium chloride) was allowed to flow at a rate of […] for 30 seconds, and regeneration was performed. For each concentration of antigen, binding of hAb-1, binding of antigen, dissociation, and regeneration were repeated in order.
# mouse CNTN4-10×His = molecular target: T3, mouse CNTN4-10×His; test: ELISA, plate coated with 20 nM antigen, HRP anti-human kappa detection
# Method: (§2) ELISA test was performed on the monoclonal antibody hAb-1 prepared in Example 2. An ELISA plate was coated with 20 nM of antigens (human CNTN4-10×His or mouse CNTN4-10×His). For antibody binding, antibodies hAb-1 were serially diluted from a maximum of 1 μM to 0.0001 nM, thereby binding to the antigen. HRP conjugated anti-human kappa antibodies were used as a secondary antibody for antibody detection. Color was developed using ABTS, which is a color developing reagent, and the absorbance at 405 nm was measured.
# human CNTN4-10×His [3] = molecular target: T1, human CNTN4-10×His; test: as above
# Method: as §2
# human CNTN4-10×His [4] = molecular target: T1, human CNTN4-10×His; test: ELISA on coated human CNTN4-10×His, co-incubated with 0 nM CNTN4 receptor (APP); 0 nM CNTN-4 receptor (co-incubation)
# Method: as §1
binder,measurement,setting,value
B1,EC50,human CNTN4-10×His [1],0.24 nM
same,Kd,[2],35.6 nM
same,EC50,mouse CNTN4-10×His,0.12 nM
same,EC50,human CNTN4-10×His [3],0.17 nM
same,EC50,human CNTN4-10×His [4],0.17 nM
